In paper PMC4795164:

Substrate: N[C@@H](CSSC[C@H](N)C(=O)O)C(=O)O
Assay: purified protein
Assay type: biochemical, Homo sapiens
Details: 100 µM AdoMet, 50 µM PLP, 100 mM HEPES pH 7.4, 37 °C

B1: human CBS (cystathionine beta-synthase) (Homo sapiens) (protein)
chain: MPSETPQAEVGPTGCPHRSGPHSAKGSLEKGSPEDKEAKEPLWIRPDAPSRCTWQLGRPASESPHHHTAPAKSPKILPDILKKIGDTPMVRINKIGKKFGLKCELLAKCEFFNAGGSVKDRISLRMIEDAERDGTLKPGDTIIEPTSGNTGIGLALAAAVRGYRCIIVMPEKMSSEKVDVLRALGAEIVRTPTNARFDSPESHVGVAWRLKNEIPNSHILDQYRNASNPLAHYDTTADEILQQCDGKLDMLVASVGTGGTITGIARKLKEKCPGCRIIGVDPEGSILAEPEELNQTEQTTYEVEGIGYDFIPTVLDRTVVDKWFKSNDEEAFTFARMLIAQEGLLCGGSAGSTVAVAVKAAQELQEGQRCVVILPDSVRNYMTKFLSDRWMLQKGFLKEEDLTEKKPWWWHLRVQELGLSAPLTVLPTITCGHTIEILREKGFDQAPVVDEAGVILGMVTLGNMLSSLLAGKVQPSDQVGKVIYKQFKQIRLTDTLGRLSHILEMDHFALVVHEQIQYHSTGKSSQRQMVFGVVTAIDLLNFVAAQERDQK
**Q.** For B1, which Km is on record?
**A.** Its Km is 1300 ± 100 µM.

**Q.** And the Vmax?
**A.** Its Vmax is 0.102 µmol/min/mg.

**Q.** What about the kcat of the same protein?
**A.** The kcat was 0.11 s⁻¹.

**Q.** What about the kcat/Km of the same protein?
**A.** Its kcat/Km is 85 M⁻¹ s⁻¹.
